Assay results: patent US11534461B2, “High affinity merkel cell polyomavirus T antigen-specific TCRS and uses thereof” (priority 2016, dated 2022)

Columns and labels:
MCC = assay: Clinical trial: avelumab plus MCPyV-specific T cells and HLA-upregulation (NCT02584829); conditions: avelumab in addition to MCPyV-specific T cells and HLA-upregulation
HLA-A*02 = HLA-A*02 (Homo sapiens, UniProt P04439, D140Y/D185E/D98H/E176V/E277Q/G131W/G231S/I119V/I121R/I166T/I218V/L300P/L318F/N151K/N90K/P208A/P217A/Q86G/Q94H/R138H/R169H/T345S); assay: HLA-A*02 binding prediction (ANN, Immune Epitope Database Analysis Resource); conditions: KLL epitope versus homologs of other polyomaviruses
Text: Residues at positions 15, 18 and 20-22 (underlined) are highly divergent.

[1] = system: peptide loaded HLA-A*02:01 K562 cells; assay: Effector cytokine secretion (IFNγ, IL-2, TNF) of transduced T cells; assay type: cell-based
Text: (A) CD8 T cells were successfully transduced with codon-optimized MCC-specific TCR (MCC1).
The polynucleotide of one of the patient-derived class I high avidity TCR clones (MCC1) was codon optimized and transduced into CD8+ T and examined for their ability to activate […].

[2] = system: peptide loaded HLA-A*02:01 K562 cells; assay: Proliferation of transduced T cells over 72 hours; assay type: cell-based; conditions: transduced CD8+ T cells
[3] = system: peptide loaded HLA-A*02:01 K562 cells; assay: 4 hour chromium release assay, peptide loaded targets; assay type: cell-based; conditions: transduced CD8+ T cells
KLL-tetramer = KLL-tetramer staining of MCC1-transduced T cells after expansion; assay type: binding; conditions: CD8+ and CD4+ T cells transduced with codon-optimized TCR, expanded in culture for two weeks
[4] = system: HLA-A*02:01 fibroblast cell lines transduced with MCPyV LT antigen; assay: 4 hour chromium release assay, LT antigen transduced targets; assay type: cell-based; conditions: transduced CD8+ T cells
[5] = biological target: T1, Merkel cell polyomavirus T antigen (common to large and small T antigen) peptide on HLA-A*02:01 (human); assay: binding, other
T1 peptide: KLLEIAPNC

avelumab
objective response (MCC; 5 MCC patients): 80% | duration of complete responses (MCC): > 1 year | toxicities with the addition of avelumab (MCC): no increased toxicities | complete responses (CRs) (MCC; of 5 MCC patients): 3 patients

KLLEIAPNC [MCPyV]
predicted to bind to HLA-A*02 better than homologous peptides (HLA-A*02): approximately 100 ×

B1: MCC1: patient-derived class I high avidity MCPyV T antigen KLL-specific TCR, codon optimized and transduced into T cells (protein)
alpha: RKEVEQDPGPFNVPEGATVAFNCTYSNSASQSFFWYRQDCRKEPKLLMSVYSSGNEDGRFTAQLNRASQYISLLIRDSKLSDSATYLCVVATYSGGGADGLTFGKGTHLIIQPDIQNPDPAVYQLRDSKSSDKSVCLFTDFDSQTNVSQSKDSDVYITDKCVLDMRSMDFKSNSAVAWSNKSDFACANAFNNSIIPEDTFFPSPESSCDVKLVEKSFETDTNLNFQNLSVIGFRILLLKVAGFNLLMTLRLWSS
beta: DAGITQSPRYKITETGRQVTLMCHQTWSHSYMFWYRQDLGHGLRLIYYSAAADITDKGEVPDGYVVSRSKTENFPLTLESATRSQTSVYFCASSSGNPSTDTQYFGPGTRLTVLDLKNVFPPEVAVFEPSEAEISHTQKATLVCLATGFYPDHVELSWWVNGKEVHSGVCTDPQPLKEQPALNDSRYCLSSRLRVSATFWQNPRNHFRCQVQFYGLSENDEWTQDRAKPVTQIVSAEAWGRADCGFTSESYQQGVLSATILYEILLGKATLYAVLVSALVLMAMVKRKDSRG
maximum percentage of transduced cells that secrete IFNγ, IL-2 and TNF ([1]; saturating levels of peptide (5 μg/mL), CD4+ versus CD8+ T cells): similar | sensitivity to engage cytokine secretion ([1]; transduced CD4+ T cells): reduced sensitivity | effector cytokine production ([1]; transduced CD8+ T cells): make effector cytokines | proliferation [2]: readily proliferate | specific killing of peptide loaded targets [3]: specifically killed | tetramer positivity after expansion (KLL-tetramer): remained tetramer positive | specific killing of MCPyV LT antigen transduced targets [4]: specifically killed

B2: X389-6 (TCR, V domains shown)
Valpha: ILNVEQSPQSLHVQEGDSTNFTCSFPSSNFYALHWYRWETAKSPEALFVMTLNGDEKKKGRISATLNTKEGYSYLYIKGSQPEDSATYLCAWNTDKLIFGTGTRLQVFP
Vbeta: DAGVIQSPRHEVTEMGQEVTLRCKPISGHNSLFWYRQTMMRGLELLIYFNNNVPIDDSGMPEDRFSAKMPNASFSTLKIQPSEPRDSAVYFCASSLAGDRSFGPGTRLTVT
binding result [5]: recognises

B3: X389-8 (TCR, V domains shown)
Valpha: RKEVEQDPGPFNVPEGATVAFNCTYSNSASQSFFWYRQDCRKEPKLLMSVYSSGNEDGRFTAQLNRASQYISLLIRDSKLSDSATYLCVVTGTGGFKTIFGAGTRLFVKA
Vbeta: GEEVAQTPKHLVRGEGQKAKLYCAPIKGHSYVFWYQQVLKNEFKFLISFQNENVFDETGMPKERFSAKCLPNSPCSLEIQATKLEDSAVYFCASSSMSIAAGNTGELFFGEGSRLTVL
binding result [5]: recognises

B4: MCC1H (TCR, V domains shown)
Valpha: QQQVKQSPQSLIVQKGGISIINCAYENTAFDYFPWYQQFPGKGPALLIAIRPDVSEKKEGRFTISFNKSAKQFSLHIMDSQPGDSATYFCAVPNTGNQFYFGTGTSLTVIP
Vbeta: GAGVSQSPRYKVAKRGQDVALRCDPISGHVSLFWYQQALGQGPEFLTYFQNEAQLDKSGLPSDRFFAERPEGSVSTLKIQRTQQEDSAVYLCASSLIAGLSYEQYFGPGTRLTVT
binding result [5]: recognises
